Assay results as given in paper PMC12138128, “Thermal proteome profiling (TPP) reveals NAMPT as the anti-glioma target of phenanthroindolizidine alkaloid PF403” (Acta Pharmaceutica Sinica. B, 2025).

Biological target: the molecule itself
Assay: crystal structure; cocrystal of recombinant NAMPT with the small molecule PF403, hanging drop vapor diffusion, 1.86 Å; NAMPT seen as a dimer with two PF403 molecules

B1: nicotinamide phosphoribosyl transferase (NAMPT), recombinant, His-tagged (enzyme, human)
chain: MNPAAEAEFNILLATDSYKVTHYKQYPPNTSKVYSYFECREKKTENSKLRKVKYEETVFYGLQYILNKYLKGKVVTKEKIQEAKDVYKEHFQDDVFNEKGWNYILEKYDGHLPIEIKAVPEGFVIPRGNVLFTVENTDPECYWLTNWIETILVQSWYPITVATNSREQKKILAKYLLETSGNLDGLEYKLHDFGYRGVSSQETAGIGASAHLVNFKGTDTVAGLALIKKYYGTKDPVPGYSVPAAEHSTITAWGKDHEKDAFEHIVTQFSSVPVSVVSDSYDIYNACEKIWGEDLRHLIVSRSTQAPLIIRPDSGNPLDTVLKVLEILGKKFPVTENSKGYKLLPPYLRVIQGDGVDINTLQEIVEGMKQKMWSIENIAFGSGGGLLQKLTRDLLNCSFKCSYVVTNGLGINVFKDPVADPNKRSKKGRLSLHRTPAGNFVTLEEGKGDLEEYGQDLLHTVFKNGKVTKSYSFDEIRKNAQLNIELEAAHH
notes: nicotinamide phosphoribosyl transferase (NAMPT), human; Dimer in the cocrystal structure with the small molecule PF403 (PDB 8Y55); also called recombinant NAMPT; WT NAMPT; source: E. coli BL21 (DE3), pET-28a(+), purified (Ni-NTA)
- binding result: binds
